# Reference: patent US20190062438A1 (CSL, published 2019)
# T1: soluble Homo sapiens CD131 comprising a C-terminal 6xHis tag (human, UniProt P32927 17-438)
# T1 construct: truncated after Ser438, C-terminal 6xHis; also called shCD131; shβc
# T1 sequence: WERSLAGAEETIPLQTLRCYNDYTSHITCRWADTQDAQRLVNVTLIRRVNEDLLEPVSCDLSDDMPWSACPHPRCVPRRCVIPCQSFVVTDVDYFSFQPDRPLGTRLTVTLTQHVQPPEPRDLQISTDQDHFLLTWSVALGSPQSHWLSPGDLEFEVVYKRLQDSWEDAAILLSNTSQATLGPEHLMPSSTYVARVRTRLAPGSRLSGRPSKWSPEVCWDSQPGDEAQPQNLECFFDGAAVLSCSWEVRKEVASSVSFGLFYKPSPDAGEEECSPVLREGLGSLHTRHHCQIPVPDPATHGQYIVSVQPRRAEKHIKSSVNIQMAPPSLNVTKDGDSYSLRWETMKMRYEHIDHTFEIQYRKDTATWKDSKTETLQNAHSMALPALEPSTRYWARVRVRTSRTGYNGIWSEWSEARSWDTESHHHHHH
# Target: T1, soluble Homo sapiens CD131 comprising a …
# Assay: SPR, Fab over captured shCD131
# Procedure: Binding kinetics were measured using SPR with a BIAcore™ A-100 instrument (GE Healthcare Life Sciences). An anti-C-terminal Hexa-His antibody (3H3) was immobilized on spots 1, 2, 4 and 5 of each flow cell of a CM-5 sensor chip (GE Healthcare Life Sciences) using amine-coupling chemistry (116). […] As shβc is a dimer, kinetics assays were performed with shβc captured on the sensor surface, and purified Fab injected as the analyte. Avidity effects were avoided by the use of Fab rather than whole IgG.
# shCD131 was captured on spots 1 and 5 of each flow cell for 2 minutes at a concentration of 0.4 μg/ml. […] For some analysis purified Fab was injected over each flow cell for 3 minutes and dissociation was monitored for a further 10 minutes. Regeneration of the surface was performed after each cycle with a 40 second injection of 25 mM glycine, pH 2.0. The analysis was performed with Fabs at several concentrations between 100 and 0.31 nM, with each concentration analyzed twice and in random order. The analysis was performed at a flow rate of 30 μl/min in HBS-EP buffer (10 mM Hepes, 150 mM NaCl, 3 mM EDTA, 0.005% Tween 20, pH 7.4) at 37° C. Responses from spots 2 and 4 of each flow cell, (in which shβc was not captured, but otherwise treated identically), were subtracted from those of spots 1 and 5 respectively to produce reference subtracted data. Reference subtracted responses from a blank injection comprising buffer alone were subtracted from the resultant sensorgrams to produce double referenced data suitable for kinetic analysis. Double-referenced sensorgrams were fitted using non-linear regression to a model describing 1:1 kinetics, including a term for mass transport limitation. The Rₘₐₓ value was fitted locally to account for slight deviations in the level of sCD131 captured, with association rate (kₐ), dissociation rate (kd) and equilibrium dissociation constant (KD) fitted globally.
Binder,Kd [pM],koff [s⁻¹],kon [M⁻¹ s⁻¹]
"9A2-VR24.10 Fab (Fab, V domains shown, recombinant Fab) VH: EVQLLESGGGLVQPGGSLRLSCAASGFTFPWYRVHWVRQAPGKGLEWVSSIHTGSQWTYYADSVKGRFTISRDNSKNTLYLQMNSLRAEDTAVYYCARFYDSFFDIWGQGTMVTVSS VL: DIQMTQSPSSVSASVGDRVTITCRASQGISSWLAWYQQKPGKAPKLLIYAASSLQSGVPSRFSGSGSGTDFTLTISSLQPEDFATYYCQQANSFPITFGQGTRLEIKR",372,0.00055,1.48e+06
"9A2-VR24.55 Fab (Fab, V domains shown, recombinant Fab) VH: EVQLLESGGGLVQPGGSLRLSCAASGFTFPWYRVHWVRQAPGKGLEWVSSIRSSGGFTYYNPSVKNRFTISRDNSKNTLYLQMNSLRAEDTAVYYCARFYDSFFDIWGQGTMVTVSS VL: DIQMTQSPSSVSASVGDRVTITCRASQGISSWLAWYQQKPGKAPKLLIYAASSLQSGVPSRFSGSGSGTDFTLTISSLQPEDFATYYCQQANSFPITFGQGTRLEIKR",369,0.000942,2.55e+06
"9A2-VR24.30 Fab (Fab, V domains shown, recombinant Fab) VH: EVQLLESGGGLVQPGGSLRLSCAASGFTFPWYRVHWVRQAPGKGLEWVSSIRSSGGFPYYNRRVKGRFTISRDNSKNTLYLQMNSLRAEDTAVYYCARFYDSFFDIWGQGTMVTVSS VL: DIQMTQSPSSVSASVGDRVTITCRASQGISSWLAWYQQKPGKAPKLLIYAASSLQSGVPSRFSGSGSGTDFTLTISSLQPEDFATYYCQQANSFPITFGQGTRLEIKR",122,0.000464,3.8e+06
"9A2-VR24.44 Fab (Fab, V domains shown, recombinant Fab) VH: EVQLLESGGGLVQPGGSLRLSCAASGFTFPWYRVHWVRQAPGKGLEWVSSIRSSGGFPYYHPSVKGRFTISRDNSKNTLYLQMNSLRAEDTAVYYCARFYDSFFDIWGQGTMVTVSS VL: DIQMTQSPSSVSASVGDRVTITCRASQGISSWLAWYQQKPGKAPKLLIYAASSLQSGVPSRFSGSGSGTDFTLTISSLQPEDFATYYCQQANSFPITFGQGTRLEIKR",163,0.000488,3e+06
"9A2-VR24.27 Fab (Fab, V domains shown, recombinant Fab) VH: EVQLLESGGGLVQPGGSLRLSCAASGFTFPWYRVHWVRQAPGKGLEWVSSIRSSGGFPYYHQKVKGRFTISRDNSKNTLYLQMNSLRAEDTAVYYCARFYDSFFDIWGQGTMVTVSS VL: DIQMTQSPSSVSASVGDRVTITCRASQGISSWLAWYQQKPGKAPKLLIYAASSLQSGVPSRFSGSGSGTDFTLTISSLQPEDFATYYCQQANSFPITFGQGTRLEIKR",170,0.000527,3.1e+06
"9A2-VR24.33 Fab (Fab, V domains shown, recombinant Fab) VH: EVQLLESGGGLVQPGGSLRLSCAASGFTFPWYRVHWVRQAPGKGLEWVSSIRSSGGFPYYNHKVKGRFTISRDNSKNTLYLQMNSLRAEDTAVYYCARFYDSFFDIWGQGTMVTVSS VL: DIQMTQSPSSVSASVGDRVTITCRASQGISSWLAWYQQKPGKAPKLLIYAASSLQSGVPSRFSGSGSGTDFTLTISSLQPEDFATYYCQQANSFPITFGQGTRLEIKR",150,0.000472,3.16e+06

# Other lines, results leading:
Kd [pM],koff [s⁻¹],kon [M⁻¹ s⁻¹],Binder
211,0.000841,4e+06,"9A2-VR24.57 Fab (Fab, V domains shown, recombinant Fab) VH: EVQLLESGGGLVQPGGSLRLSCAASGFTFPWYRVHWVRQAPGKGLEWVSSIRSSGGFTYYNPKVKHRFTISRDNSKNTLYLQMNSLRAEDTAVYYCARFYDSFFDIWGQGTMVTVSS VL: DIQMTQSPSSVSASVGDRVTITCRASQGISSWLAWYQQKPGKAPKLLIYAASSLQSGVPSRFSGSGSGTDFTLTISSLQPEDFATYYCQQANSFPITFGQGTRLEIKR"
161,0.000448,2.78e+06,"9A2-VR24.91 Fab (Fab, V domains shown, recombinant Fab) VH: EVQLLESGGGLVQPGGSLRLSCAASGFTFPWYRVHWVRQAPGKGLEWVSSIHTHRQVTYYADSVKGRFTISRDNSKNTLYLQMNSLRAEDTAVYYCARFYDSFFDIWGQGTMVTVSS VL: DIQMTQSPSSVSASVGDRVTITCRASQGISSWLAWYQQKPGKAPKLLIYAASSLQSGVPSRFSGSGSGTDFTLTISSLQPEDFATYYCQQANSFPITFGQGTRLEIKR"
160,0.000524,3.2e+06,"9A2-VR24.97 Fab (Fab, V domains shown, recombinant Fab) VH: EVQLLESGGGLVQPGGSLRLSCAASGFTFPWYRVHWVRQAPGKGLEWVSSIRSSGGFPYYSLSVKGRFTISRDNSKNTLYLQMNSLRAEDTAVYYCARFYDSFFDIWGQGTMVTVSS VL: DIQMTQSPSSVSASVGDRVTITCRASQGISSWLAWYQQKPGKAPKLLIYAASSLQSGVPSRFSGSGSGTDFTLTISSLQPEDFATYYCQQANSFPITFGQGTRLEIKR"
106,0.000418,3.95e+06,"9A2-VR24.84 Fab (Fab, V domains shown, recombinant Fab) VH: EVQLLESGGGLVQPGGSLRLSCAASGFTFPWYRVHWVRQAPGKGLEWVSSIHTHRPWTYYADSVKGRFTISRDNSKNTLYLQMNSLRAEDTAVYYCARFYDSFFDIWGQGTMVTVSS VL: DIQMTQSPSSVSASVGDRVTITCRASQGISSWLAWYQQKPGKAPKLLIYAASSLQSGVPSRFSGSGSGTDFTLTISSLQPEDFATYYCQQANSFPITFGQGTRLEIKR"
188,0.000556,2.95e+06,"9A2-VR24.102 Fab (Fab, V domains shown, recombinant Fab) VH: EVQLLESGGGLVQPGGSLRLSCAASGFTFPWYRVHWVRQAPGKGLEWVSSIRSSGGFPFYNSSVKGRFTISRDNSKNTLYLQMNSLRAEDTAVYYCARFYDSFFDIWGQGTMVTVSS VL: DIQMTQSPSSVSASVGDRVTITCRASQGISSWLAWYQQKPGKAPKLLIYAASSLQSGVPSRFSGSGSGTDFTLTISSLQPEDFATYYCQQANSFPITFGQGTRLEIKR"
183,0.00053,2.89e+06,"9A2-VR24.107 Fab (Fab, V domains shown, recombinant Fab) VH: EVQLLESGGGLVQPGGSLRLSCAASGFTFPWYRVHWVRQAPGKGLEWVSSIRSSGGFPYYNPFVKGRFTISRDNSKNTLYLQMNSLRAEDTAVYYCARFYDSFFDIWGQGTMVTVSS VL: DIQMTQSPSSVSASVGDRVTITCRASQGISSWLAWYQQKPGKAPKLLIYAASSLQSGVPSRFSGSGSGTDFTLTISSLQPEDFATYYCQQANSFPITFGQGTRLEIKR"
353,0.000997,2.82e+06,"9A2-VR24.56 Fab (Fab, V domains shown, recombinant Fab) VH: EVQLLESGGGLVQPGGSLRLSCAASGFTFPWYRVHWVRQAPGKGLEWVSSIRSSGGFTYYNPAVRGRFTISRDNSKNTLYLQMNSLRAEDTAVYYCARFYDSFFDIWGQGTMVTVSS VL: DIQMTQSPSSVSASVGDRVTITCRASQGISSWLAWYQQKPGKAPKLLIYAASSLQSGVPSRFSGSGSGTDFTLTISSLQPEDFATYYCQQANSFPITFGQGTRLEIKR"
151,0.000475,3.15e+06,"9A2-VR24.110 Fab (Fab, V domains shown, recombinant Fab) VH: EVQLLESGGGLVQPGGSLRLSCAASGFTFPWYRVHWVRQAPGKGLEWVSSIRSSGGFPYYNNHVKGRFTISRDNSKNTLYLQMNSLRAEDTAVYYCARFYDSFFDIWGQGTMVTVSS VL: DIQMTQSPSSVSASVGDRVTITCRASQGISSWLAWYQQKPGKAPKLLIYAASSLQSGVPSRFSGSGSGTDFTLTISSLQPEDFATYYCQQANSFPITFGQGTRLEIKR"
173,0.000492,2.85e+06,"9A2-VR24.81 Fab (Fab, V domains shown, recombinant Fab) VH: EVQLLESGGGLVQPGGSLRLSCAASGFTFPWYRVHWVRQAPGKGLEWVSSIHTHRNYTYYADSVKGRFTISRDNSKNTLYLQMNSLRAEDTAVYYCARFYDSFFDIWGQGTMVTVSS VL: DIQMTQSPSSVSASVGDRVTITCRASQGISSWLAWYQQKPGKAPKLLIYAASSLQSGVPSRFSGSGSGTDFTLTISSLQPEDFATYYCQQANSFPITFGQGTRLEIKR"
174,0.000559,3.21e+06,"9A2-VR24.98 Fab (Fab, V domains shown, recombinant Fab) VH: EVQLLESGGGLVQPGGSLRLSCAASGFTFPWYRVHWVRQAPGKGLEWVSSIRSSGGFPHYNSVVKGRFTISRDNSKNTLYLQMNSLRAEDTAVYYCARFYDSFFDIWGQGTMVTVSS VL: DIQMTQSPSSVSASVGDRVTITCRASQGISSWLAWYQQKPGKAPKLLIYAASSLQSGVPSRFSGSGSGTDFTLTISSLQPEDFATYYCQQANSFPITFGQGTRLEIKR"
